Key:
[1] = biological target: T1, LAG-3 on the cell surface of SEA-activated human PBMC (activated T cells) (human, UniProt P18627 23-525); assay: cell-based or functional assay
T1 sequence (looked up): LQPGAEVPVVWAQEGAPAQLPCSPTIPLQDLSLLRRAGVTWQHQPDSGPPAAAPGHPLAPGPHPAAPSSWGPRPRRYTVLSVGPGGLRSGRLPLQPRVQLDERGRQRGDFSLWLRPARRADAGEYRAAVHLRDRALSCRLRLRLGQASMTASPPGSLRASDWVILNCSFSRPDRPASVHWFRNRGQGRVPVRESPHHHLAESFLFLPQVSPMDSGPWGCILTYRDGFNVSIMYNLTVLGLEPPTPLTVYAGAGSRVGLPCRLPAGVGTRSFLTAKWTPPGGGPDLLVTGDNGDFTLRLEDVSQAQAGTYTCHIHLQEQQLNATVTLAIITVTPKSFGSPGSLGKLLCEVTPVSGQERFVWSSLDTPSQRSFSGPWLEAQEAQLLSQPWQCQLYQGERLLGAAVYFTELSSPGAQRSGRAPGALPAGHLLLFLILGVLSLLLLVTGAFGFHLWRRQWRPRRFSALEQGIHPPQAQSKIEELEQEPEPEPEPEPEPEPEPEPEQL

[2] = biological target: T2, LAG-3-ECD-His (LAG-3 extracellular segment with His tag, purchased from Sino Biological Inc.) (UniProt P18627 23-450); assay: ELISA, plate coated with LAG-3-ECD-His (10 ng/well), anti-human IgG (Fc) detection
T2 construct: extracellular domain; not shown: His tag
T2 sequence (looked up): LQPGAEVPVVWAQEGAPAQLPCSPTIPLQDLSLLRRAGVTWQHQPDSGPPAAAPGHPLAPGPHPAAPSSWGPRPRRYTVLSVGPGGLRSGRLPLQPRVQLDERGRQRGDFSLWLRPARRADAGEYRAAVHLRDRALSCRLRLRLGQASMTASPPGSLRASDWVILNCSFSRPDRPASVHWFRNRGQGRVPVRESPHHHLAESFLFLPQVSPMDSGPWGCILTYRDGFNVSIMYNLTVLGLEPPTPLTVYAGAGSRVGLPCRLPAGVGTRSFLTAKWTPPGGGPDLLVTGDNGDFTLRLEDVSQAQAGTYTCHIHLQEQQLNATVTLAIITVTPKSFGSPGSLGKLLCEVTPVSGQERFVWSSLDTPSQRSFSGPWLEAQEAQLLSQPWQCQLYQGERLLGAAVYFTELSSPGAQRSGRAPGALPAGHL

[3] = biological target: T3, full-length human LAG-3 on CHO-S cells (CHO-S-LAG-3) (human, UniProt P18627 23-525); assay: flow cytometry, blocking of Biotin-FGL1-hFc (2 ug/ml) binding to CHO-S-LAG-3 cells
T3 construct: whole, on cells
T3 sequence (looked up): T1 sequence (looked up)

[4] = biological target: T4, recombinant LAG-3 (purchased from SinoBiological, Cat. No.: 16498-H08H) (human, UniProt P18627 23-450); assay: SPR (Biacore 8K), antibody captured on Protein A chip, recombinant LAG-3 as analyte
T4 construct: also called human LAG-3
T4 sequence (looked up): T2 sequence (looked up)

[5] = biological target: T1, LAG-3 on the cell surface of …; assay: flow cytometry, biotinylated antibody on SEA-activated human PBMC, PE-Streptavidin detection

B1: 5E7-Hu-IgG4 (antibody, V domains shown)
VH: EVQLVESGGGLVKPGGSLRLSCAASGFTFSDDYMAWFRQAPGKRLEWVASISHGGDYIYYADNLKGRFTISRDNAKNSLYLQMNSLRAEDTAVYFCSRDRRSIDYWGQGTLVTVSS
VL: DIQMTQSPSSLSASVGDRVTITCRASQDISNYLSWYQQKPGKTIKLLIYYTSRLHSGVPSRFSGSGSGTDYTFTISSLQPEDIATYFCQQGKTLPYTFGQGTKVEIKR
modifications: Biotinylated with NHS-biotin only for the flow cytometry of Example 7 (positions not defined).
notes: also called humanized antibody No. 5E7; 5E7-Hu-IgG4-HC + 5E7-Hu-LC
EC50 of enhancing the secretion of IL-2 by SEA-stimulated PBMC (Fig. 3A) [1]: 78.1 ng/mL
EC50 of enhancing the secretion of IL-2 by SEA-stimulated PBMC (Fig. 3B) [1]: 3.07 ng/mL
EC50 [2]: 9.08 ng/mL
IC50 [3]: 0.0977 µg/mL
Kd [4]: 4.17 pM
koff [4]: 1.84e-05 s⁻¹
kon [4]: 4.41e+06 M⁻¹ s⁻¹
EC50 [5]: 0.0531 µg/mL

— EP3932948A1 (Sunshine Guojian Pharmaceutical (Shanghai) Co., Ltd., dated 2022)
